Experimental data as given in paper PMC3328447, “DNA Aptamers against the Lup an 1 Food Allergen”.

Key:
[1] = test system: beta-conglutin (Lup an 1) (lupin); assay: SPR; details: 10 mM phosphate, 138 mM NaCl, 2.7 mM KCl, 1.5 mM MgCl2, pH 7.4; ELONA at 21 C, SPR temperature not stated (Biacore 3000, CM5)
[2] = test system: beta-conglutin (Lup an 1) (lupin); assay: competition; details: 10 mM phosphate, 138 mM NaCl, 2.7 mM KCl, 1.5 mM MgCl2, pH 7.4; ELONA at 21 C, SPR temperature not stated (Biacore 3000, CM5)
gamma-conglutin = biological target: T1, gamma-conglutin (lupin, UniProt Q9FSH9;Q9FSH9 34-300;301-452); assay: SPR; 10 uM DNA, 1.5 mM Mg2+; signal negligible; 10 mM phosphate, 138 mM NaCl, 2.7 mM KCl, 1.5 mM MgCl2, pH 7.4; ELONA at 21 C, SPR temperature not stated (Biacore 3000, CM5); details: protein: native, tags: none, label: none, single strand, predicted stem-loops and G-quadruplex (m-fold, QGRS)
T1 sequence 1: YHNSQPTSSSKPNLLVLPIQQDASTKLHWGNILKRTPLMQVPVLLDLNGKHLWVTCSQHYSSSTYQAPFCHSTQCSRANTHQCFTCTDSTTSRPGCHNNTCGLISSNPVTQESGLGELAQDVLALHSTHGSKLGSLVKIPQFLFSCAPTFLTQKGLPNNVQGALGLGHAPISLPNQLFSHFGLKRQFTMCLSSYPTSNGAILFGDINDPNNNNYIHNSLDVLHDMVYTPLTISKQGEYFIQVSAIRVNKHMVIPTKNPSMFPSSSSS
T1 sequence 2: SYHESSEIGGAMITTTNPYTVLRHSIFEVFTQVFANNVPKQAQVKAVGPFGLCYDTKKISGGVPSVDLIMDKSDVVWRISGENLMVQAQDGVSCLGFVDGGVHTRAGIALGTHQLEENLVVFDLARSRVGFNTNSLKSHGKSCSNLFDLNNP

## AGCTGACACAGCAGGTTGGTGGGGGTGGCTCACATCATGGTAGAATGACTGAACAGCGTTGATTAAAAGGCACGAGTCGAGCAATCTCGAAAT [Sequence 2 (S2)]
[1]
  Kd: 515 nM

## AGCTGACACAGCAGGTTGGTGGGGGTGGCTTCCAGTTGGGTTGACAATACGTAGGGACACGAAGTCCAACCACGAGTCGAGCAATCTCGAAAT [Sequence 40 (S40)]
[2]
  IC50: 393 nM
[1]
  Kd: 360 nM

B1: Sequence 40 (S40) (structured_DNA)
DNA: AGCTGACACAGCAGGTTGGTGGGGGTGGCTTCCAGTTGGGTTGACAATACGTAGGGACACGAAGTCCAACCACGAGTCGAGCAATCTCGAAAT
gamma-conglutin; biotinylated probe S4 hybridised to 3' end for ELONA detection
  binding result: no binding

B2: Sequence 2 (S2) (structured_DNA)
DNA: AGCTGACACAGCAGGTTGGTGGGGGTGGCTCACATCATGGTAGAATGACTGAACAGCGTTGATTAAAAGGCACGAGTCGAGCAATCTCGAAAT
gamma-conglutin
  binding result: no binding
